Measurements taken from publication PMC12480952 (Nature Communications, 2025).

B1: BCL-2ΔLΔC WT (domain or fragment, human)
chain: MAHAGRTGYDNREIVMKYIHYKLSQRGYEWDAGDDVEENRTEAPEGTESEVVHLTLRQAGDDFSRRYRRDFAEMSSQLHLTPFTARGRFATVVEELFRDGVNWGRIVAFFEFGGVMCVESVNREMSPLVDNIALWMTEYLNRHLHTWIQDNGGWDAFVELYGPSMRA
B2: BCL-2ΔLΔC A113G (domain or fragment, human)
chain: MAHAGRTGYDNREIVMKYIHYKLSQRGYEWDAGDDVEENRTEAPEGTESEVVHLTLRQAGDDFSRRYRRDFGEMSSQLHLTPFTARGRFATVVEELFRDGVNWGRIVAFFEFGGVMCVESVNREMSPLVDNIALWMTEYLNRHLHTWIQDNGGWDAFVELYGPSMRA
B3: BCL-2ΔLΔC D103Y (domain or fragment, human)
chain: MAHAGRTGYDNREIVMKYIHYKLSQRGYEWDAGDDVEENRTEAPEGTESEVVHLTLRQAGDYFSRRYRRDFAEMSSQLHLTPFTARGRFATVVEELFRDGVNWGRIVAFFEFGGVMCVESVNREMSPLVDNIALWMTEYLNRHLHTWIQDNGGWDAFVELYGPSMRA
B4: BCL-2ΔLΔC F104L (domain or fragment, human)
chain: MAHAGRTGYDNREIVMKYIHYKLSQRGYEWDAGDDVEENRTEAPEGTESEVVHLTLRQAGDDLSRRYRRDFAEMSSQLHLTPFTARGRFATVVEELFRDGVNWGRIVAFFEFGGVMCVESVNREMSPLVDNIALWMTEYLNRHLHTWIQDNGGWDAFVELYGPSMRA
B5: BCL-2ΔLΔC G101V (domain or fragment, human)
chain: MAHAGRTGYDNREIVMKYIHYKLSQRGYEWDAGDDVEENRTEAPEGTESEVVHLTLRQAVDDFSRRYRRDFAEMSSQLHLTPFTARGRFATVVEELFRDGVNWGRIVAFFEFGGVMCVESVNREMSPLVDNIALWMTEYLNRHLHTWIQDNGGWDAFVELYGPSMRA
B6: BCL-2ΔLΔC R129L (domain or fragment, human)
chain: MAHAGRTGYDNREIVMKYIHYKLSQRGYEWDAGDDVEENRTEAPEGTESEVVHLTLRQAGDDFSRRYRRDFAEMSSQLHLTPFTARGLFATVVEELFRDGVNWGRIVAFFEFGGVMCVESVNREMSPLVDNIALWMTEYLNRHLHTWIQDNGGWDAFVELYGPSMRA
B7: BCL-2ΔLΔC V156D (domain or fragment, human)
chain: MAHAGRTGYDNREIVMKYIHYKLSQRGYEWDAGDDVEENRTEAPEGTESEVVHLTLRQAGDDFSRRYRRDFAEMSSQLHLTPFTARGRFATVVEELFRDGVNWGRIVAFFEFGGDMCVESVNREMSPLVDNIALWMTEYLNRHLHTWIQDNGGWDAFVELYGPSMRA

target: FITC-BIM BH3 (FITC at the N-terminus); assay: fluorescence polarisation

Compared with B1, B2 is 2.7-fold higher in EC90: 8.6 nM for the first, 23 nM for the second.

First: B3
Second: B4
The EC90 of the first is 13-fold higher: 21 nM for the first, 1.6 nM for the second.

Going from B5 to B6, the EC90 rises from 5.8 nM to 8.7 nM (1.5-fold).

B7 showed an EC90 of 17 nM.
